Blank lines part the entries; values can stand above or below the binder they belong to.
B3: PDZ domain of the intracellular scaffold protein PICK1 (domain or fragment, UniProt Q9NRD5 22-105, looked up)
chain: KVTLQKDAQNLIGISIGGGAQYCPCLYIVQVFDNTPAALDGTVAAGDEITGVNGRSIKGKTKVEVAKMIQEVKGEVTIHYNKLQ
notes: PICK1, PDZ domain; also called PICK1 PDZ domain

Tests used:
[1] = biological target: B3; assay: SPR; steady state; α7nAChR immobilised on an NTA sensor chip (1000-2000 RU), PICK1 PDZ domain flowed at 30 μl/min, 25 °C, Biacore 3000; receptor in 0.05% DDM; apparent dissociation constants, Langmuir isotherm, n=3; settings: both partners purified
[2] = biological target: B3; assay: SPR; steady state; α7nAChR immobilised on an NTA sensor chip (1000-2000 RU), PICK1 PDZ domain flowed at 30 μl/min, 25 °C, Biacore 3000; receptor in 0.05% LDAO; apparent dissociation constants, Langmuir isotherm, n=3; settings: both partners purified
[3] = biological target: the molecule itself; assay: SEC; Superdex 200 10/300 Increase GL, 10 mM sodium acetate pH 4.8, 100 mM NaCl, 0.05% LDAO; elution peak at 12.6 ml
[4] = biological target: the molecule itself; assay: DEER ESR; MTSL-labelled TMD+ICD C219 in LDAO micelles; non-adjacent/adjacent distance ratio ~1.6
[5] = biological target: T1, full-length human α7 nicotinic acetylcholine receptor (human, UniProt P36544 23-502); assay: SPR; steady state; α7nAChR immobilised on an NTA sensor chip (1000-2000 RU), PICK1 PDZ domain flowed at 30 μl/min, 25 °C, Biacore 3000; receptor in 0.05% DDM; apparent dissociation constants, Langmuir isotherm, n=3; settings: both partners purified
T1 construct: human α7 nicotinic acetylcholine receptor, UniProtKB P36544 ACHA7_HUMAN, full length; also called α7nAChR; full length α7nAChR; source: E. coli Rosetta 2(DE3) pLysS, purified (NiNTA, SEC)
T1 sequence (P36544 23-502): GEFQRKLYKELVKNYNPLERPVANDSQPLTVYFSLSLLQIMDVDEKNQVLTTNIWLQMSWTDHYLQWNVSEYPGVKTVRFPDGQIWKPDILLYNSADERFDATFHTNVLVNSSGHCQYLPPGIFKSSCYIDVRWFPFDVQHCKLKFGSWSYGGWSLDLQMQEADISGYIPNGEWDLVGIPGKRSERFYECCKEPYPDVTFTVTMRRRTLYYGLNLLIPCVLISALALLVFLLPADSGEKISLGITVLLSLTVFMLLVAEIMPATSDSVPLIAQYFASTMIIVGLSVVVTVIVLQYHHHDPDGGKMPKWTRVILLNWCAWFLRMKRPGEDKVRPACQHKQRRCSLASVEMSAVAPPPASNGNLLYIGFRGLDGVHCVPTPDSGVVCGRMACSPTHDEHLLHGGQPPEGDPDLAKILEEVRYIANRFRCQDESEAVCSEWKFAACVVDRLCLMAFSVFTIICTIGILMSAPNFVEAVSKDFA

[6] = biological target: T1, full-length human α7 nicotinic …; assay: SPR; steady state; α7nAChR immobilised on an NTA sensor chip (1000-2000 RU), PICK1 PDZ domain flowed at 30 μl/min, 25 °C, Biacore 3000; receptor in 0.05% LDAO; apparent dissociation constants, Langmuir isotherm, n=3; settings: both partners purified
[7] = biological target: the molecule itself; assay: not stated; result shown in Supplementary Fig. 2 (not shown); the methods tell only that the pentamer fraction was isolated by SEC (S200 10/300, 20 mM HEPES pH 7.4, 300 mM NaCl, 0.2% DPC or 0.1% LDAO)

Kd [1]: 4.2 µM
Kd [2]: 4 µM
B1: human α7 nicotinic acetylcholine receptor TMD+ICD construct used for NMR (domain or fragment)
chain: SNAEEELYYGLNLLIPCVLISALALLVFLLPADSGEKISLGITVLLSLTVFMLLVAEIMPSTSDSSPSIAQYFASTMIIVGLSVVVTVIVLQYHHHDPDGGKMPKWTRVILLNWCAWFLRMKRPGEDKVRPACQHKQRRCSLASVEMSAVAPPPASNGNLLYIGFRGLDGVHCVPTPDSGVVCGRMACSPTHDEHLLHGGQPPEGDPDLAKILEEVRYIANRFRCQDESEAVCSEWKFAACVVDRLCLMAFSVFTIICTIGILMSAPNFVEE
notes: also called α7nAChR(TMD+ICD)NMR; α7nAChR TMD-ICD; source: E. coli Rosetta 2(DE3) pLysS, purified (NiNTA, SEC)
stoichiometry N [3]: 5

B2: α7nAChR TMD+ICD C219, single-cysteine construct labelled with MTSL (domain or fragment)
chain: SNAEEELYYGLNLLIPCVLISALALLVFLLPADSGEKISLGITVLLSLTVFMLLVAEIMPSTSDSSPSIAQYFASTMIIVGLSVVVTVIVLQYHHHDPDGGKMPKWTRVILLNWCAWFLRMKRPGEDKVRPACQHKQRRCSLASVEMSAVAPPPASNGNLLYIGFRGLDGVHCVPTPDSGVVCGRMACSPTHDEHLLHGGQPPEGDPDLAKILEEVRYIANRFRCQDESEAVCSEWKFAACVVDRLCLMAFSVFTIICTIGILMSAPNFVEE
modifications: MTSL on C219
stoichiometry N [4]: 5

Binder: B3
Kd [5]: 3.3 µM
Kd [6]: 3.1 µM

B4: human α7 nicotinic acetylcholine receptor TMD + ICD construct (L209-V472) (domain or fragment, UniProt P36544 231-494, looked up)
chain: LYYGLNLLIPCVLISALALLVFLLPADSGEKISLGITVLLSLTVFMLLVAEIMPATSDSVPLIAQYFASTMIIVGLSVVVTVIVLQYHHHDPDGGKMPKWTRVILLNWCAWFLRMKRPGEDKVRPACQHKQRRCSLASVEMSAVAPPPASNGNLLYIGFRGLDGVHCVPTPDSGVVCGRMACSPTHDEHLLHGGQPPEGDPDLAKILEEVRYIANRFRCQDESEAVCSEWKFAACVVDRLCLMAFSVFTIICTIGILMSAPNFV
notes: human α7 nicotinic acetylcholine receptor, transmembrane domain plus intracellular domain, 264 residues L209-V472; Single-cysteine, spin-labelled and isotope-labelled versions gave the NMR and ESR restraints for the structure; also called α7nAChR TMD + ICD; source: E. coli Rosetta 2(DE3) pLysS, purified (NiNTA, SEC; pentamer fraction, in DPC or LDAO)
stoichiometry N [7]: 5
